In patent publication US20060115477A1 (Bristol-Myers Squibb, published 2006):

Molecular target: T1, neuropilin-1 (human, UniProt O14786 22-923)
T1 construct: whole, on cells; On intact cells in FACS and cell assays; pulled down from Triton X-100 lysate of HT1080 cells in the immunoprecipitation, identified as the full length form by MALDI peptide mass fingerprint; also called NP-1; VEGF165R
Test: competition FACS on HT1080 cells preincubated with VEGF165 (legend of FIG. 17)
Description: ScFv's were labeled with fluorescein isothiocyanate (Molecular Probes, # F-1906) according to the instructions of the manufacturer. HT1080 cells were preincubated with a control scFv, a NP-1-binding scFv's (e.g. scFv8, scFv13 or scFv22) (both at 25 μg/ml) or VEGF₁₆₅ (R&Dsystems, #293-VE/CF) ([…]) for 2 hours at 0° C. and the fluorescein labeled NP-1-binding scFv (5 μg/ml) was added for 30 min. at 0° C. Bound fluorescein labeled scFv were detected by flow cytometry and the geometric mean fluorescence intensity was recorded. In order to determine if NP-1-binding scFv has overlapping epitopes with VEGF and each other for binding to cell surface NP-1, a competition FACS with directly labeled scFv was performed. […] Furthermore, scFv8 and scFv24 have mutually overlapping epitopes whereas scFv13 has an epitope distinct from scFv8 and scFv24.

T1 sequence (O14786 22-923): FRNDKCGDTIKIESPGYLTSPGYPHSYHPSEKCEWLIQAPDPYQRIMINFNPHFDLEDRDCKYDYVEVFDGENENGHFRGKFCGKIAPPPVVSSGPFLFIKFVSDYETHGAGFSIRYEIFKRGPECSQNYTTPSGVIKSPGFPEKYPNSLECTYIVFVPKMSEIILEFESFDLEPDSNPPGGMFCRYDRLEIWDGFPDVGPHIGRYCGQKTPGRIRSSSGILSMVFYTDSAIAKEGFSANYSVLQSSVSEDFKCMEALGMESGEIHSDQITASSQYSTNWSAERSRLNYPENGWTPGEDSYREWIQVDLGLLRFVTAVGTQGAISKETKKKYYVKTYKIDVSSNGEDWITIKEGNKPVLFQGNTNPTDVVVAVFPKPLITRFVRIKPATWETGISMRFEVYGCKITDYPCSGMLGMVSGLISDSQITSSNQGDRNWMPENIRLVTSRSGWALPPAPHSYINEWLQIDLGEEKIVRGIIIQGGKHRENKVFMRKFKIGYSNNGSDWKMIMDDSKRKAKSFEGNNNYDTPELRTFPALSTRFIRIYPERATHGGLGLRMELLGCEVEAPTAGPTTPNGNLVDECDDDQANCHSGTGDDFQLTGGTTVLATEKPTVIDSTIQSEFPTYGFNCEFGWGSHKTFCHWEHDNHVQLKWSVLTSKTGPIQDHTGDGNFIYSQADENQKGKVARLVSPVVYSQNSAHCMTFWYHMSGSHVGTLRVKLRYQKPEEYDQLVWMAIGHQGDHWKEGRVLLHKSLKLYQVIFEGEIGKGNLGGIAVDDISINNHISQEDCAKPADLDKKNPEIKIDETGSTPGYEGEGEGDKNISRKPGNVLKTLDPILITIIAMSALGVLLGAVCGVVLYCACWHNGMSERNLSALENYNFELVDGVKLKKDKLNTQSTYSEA

B1: VEGF165 (R&Dsystems, #293-VE/CF) (ligand, human, UniProt P15692-4 27-191, looked up)
chain: APMAEGGGQNHHEVVKFMDVYQRSYCHPIETLVDIFQEYPDEIEYIFKPSCVPLMRCGGCCNDEGLECVPTEESNITMQIMRIKPHQGQHIGEMSFLQHNKCECRPKKDRARQENPCGPCSERRKHLFVQDPQTCKCSCKNTDSRCKARQLELNERTCRCDKPRR
notes: mature; also called recombinant human VEGF
binding result: binds
